# Earlier results in PMC8033747.
# Biological target: CHMP3 (Homo sapiens) (UniProt Q9Y3E7)
# Assay: SPR
# CHMP3 (Homo sapiens), sequence (Q9Y3E7 2-222): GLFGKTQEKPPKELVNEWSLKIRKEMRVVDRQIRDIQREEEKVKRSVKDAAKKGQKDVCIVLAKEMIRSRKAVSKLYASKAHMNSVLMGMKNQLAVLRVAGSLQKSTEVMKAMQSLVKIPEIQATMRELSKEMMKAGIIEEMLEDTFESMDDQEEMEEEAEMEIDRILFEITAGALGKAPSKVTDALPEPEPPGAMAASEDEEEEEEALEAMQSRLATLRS
# CHMP2A, sequence (O43633 whole entry): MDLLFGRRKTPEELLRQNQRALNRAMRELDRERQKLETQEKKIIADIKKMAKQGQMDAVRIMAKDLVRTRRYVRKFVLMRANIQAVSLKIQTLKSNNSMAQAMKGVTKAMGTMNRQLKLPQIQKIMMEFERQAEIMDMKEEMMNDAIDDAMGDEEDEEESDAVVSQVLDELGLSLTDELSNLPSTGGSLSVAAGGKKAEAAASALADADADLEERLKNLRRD
# CHMP2B, sequence (Q9UQN3 2-213): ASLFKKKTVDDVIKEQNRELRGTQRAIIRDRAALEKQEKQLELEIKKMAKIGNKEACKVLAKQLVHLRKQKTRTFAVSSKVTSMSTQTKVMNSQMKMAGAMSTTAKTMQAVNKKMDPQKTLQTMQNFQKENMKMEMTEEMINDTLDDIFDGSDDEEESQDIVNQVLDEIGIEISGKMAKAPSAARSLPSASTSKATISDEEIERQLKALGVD
row,Kd,Substance
1,3200 nM,CHMP2A (from UniProt O43633)
2,1400 nM,CHMP2B (from UniProt Q9UQN3)
